This is an account of results in publication PMC2612750, “Identification of Pax6-Dependent Gene Regulatory Networks in the Mouse Lens”.

One data set deals with Pax6 GST-PD (UniProt P63015 4-130). Briefly: EMSA; EMSA: 0.5-1 ng 5'-end-labelled probe, 2 ug poly(dI-dC), room temperature 10 min, 5% PAGE in 0.5x TBE; competitor 50 ng cold P6CON (~50:1); binding buffer, salt. The settings on record: protein: recombinant; tags: GST; label: 5'-end label (radioactive). Background: A gel shift assay detects complexes by their altered migration in electrophoresis.
Pax6 GST-PD, sequence (P63015 4-130): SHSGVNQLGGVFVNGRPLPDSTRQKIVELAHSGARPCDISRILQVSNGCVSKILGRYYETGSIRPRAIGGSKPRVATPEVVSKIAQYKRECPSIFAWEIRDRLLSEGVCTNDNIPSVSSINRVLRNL

A further data set has as its target Pax6 GST-PD/HD (UniProt P63015 4-269). The data set is described as above. The note with it: protein: recombinant; tags: GST; label: 5'-end label (radioactive).

Pax6 GST-PD/HD, sequence (P63015 4-269): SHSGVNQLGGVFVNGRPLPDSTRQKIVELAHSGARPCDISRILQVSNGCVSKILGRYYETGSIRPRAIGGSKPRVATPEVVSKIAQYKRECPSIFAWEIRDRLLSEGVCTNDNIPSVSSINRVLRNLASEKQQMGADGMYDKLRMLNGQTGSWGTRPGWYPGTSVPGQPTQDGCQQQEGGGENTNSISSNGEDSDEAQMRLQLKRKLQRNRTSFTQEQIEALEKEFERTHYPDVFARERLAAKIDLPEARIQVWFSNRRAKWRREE

B1: P6CON (dsDNA)
DNA 1: GGATGCAATTTCACGCATGAGTGCCTCGAGGGATCCACGTCGA
DNA 2: TCGACGTGGATCCCTCGAGGCACTCATGCGTGAAATTGCATCC
Turning to B1, the binding result with Pax6 GST-PD and in the data set with Pax6 GST-PD/HD was “binds” each time.
